Laboratory results reported in PMC12751073.

Legend:
[1] = biological target: FLAG-tagged full-length human CHK2, wildtype (immunoprecipitated) (human) (UniProt O96017)
[2] = biological target: FLAG-tagged full-length human CHK2 K245A (immunoprecipitated) (human) (UniProt O96017)
[3] = biological target: FLAG-tagged full-length human CHK2, wildtype (immunoprecipitated) (human) (UniProt O96017); remark: listed apart in the source

With “Calmodulin (recombinant, produced in-house) (from UniProt P0DP23 1-149) (natural protein)” the IC50 of CaM (0-200 μM) for the kinase activity of immunoprecipitated full-length CHK2, radiometric assay, 1 mM CaCl2 [1] was 8.09 µM, the fold decrease in radiometric kinase assay of immunoprecipitated full-length CHK2 mutant with or without CaCl2 and CaM [2] was 10 fold and the radiometric kinase assay (CHKtide, [^32P]-γ-ATP) of immunoprecipitated full-length CHK2 with or without CaCl2 and CaM [3] was 10 fold.
